# In PMC13598120:
# B1: Flag-tagged GNL3 (Flag-GNL3), wild type [human] / RAD51, endogenous [human (endogenous in U2OS and HeLa)] (parent)
# chain 1: MKRPKLKKASKRMTCHKRYKIQKKVREHHRKLRKEAKKRGHKKPRKDPGVPNSAPFKEALLREAELRKQRLEELKQQQKLDRQKELEKKRKLETNPDIKPSNVEPMEKEFGLCKTENKAKSGKQNSKKLYCQELKKVIEASDVVLEVLDARDPLGCRCPQVEEAIVQSGQKKLVLILNKSDLVPKENLESWLNYLKKELPTVVFRASTKPKDKGKITKRVKAKKNAAPFRSEVCFGKEGLWKLLGGFQETCSKAIRVGVIGFPNVGKSSIINSLKQEQMCNVGVSMGLTRSMQVVPLDKQITIIDSPSFIVSPLNSSSALALRSPASIEVVKPMEAASAILSQADARQVVLKYTVPGYRNSLEFFTVLAQRRGMHQKGGIPNVEGAAKLLWSEWTGASLAYYCHPPTSWTPPPYFNESIVVDMKSGFNLEELEKNNAQSIRAIKGPHLANSILFQSSGLTNGIIEEKDIHEELPKRKERKQEEREDDKDSDQETVDEEVDENSSGMFAAEETGEALSEETTAGEQSTRSFILDKIIEEDDAYDFSTDYV
# chain 2: MAMQMQLEANADTSVEEESFGPQPISRLEQCGINANDVKKLEEAGFHTVEAVAYAPKKELINIKGISEAKADKILAEAAKLVPMGFTTATEFHQRRSEIIQITTGSKELDKLLQGGIETGSITEMFGEFRTGKTQICHTLAVTCQLPIDRGGGEGKAMYIDTEGTFRPERLLAVAERYGLSGSDVLDNVAYARAFNTDHQTQLLYQASAMMVESRYALLIVDSATALYRTDYSGRGELSARQMHLARFLRMLLRLADEFGVAVVITNQVVAQVDGAAMFAADPKKPIGGNIIAHASTTRLYLRKGRGETRICKIYDSPCLPEAEAMFAINADGVGDAKD
# Variants of: B1
# Test: co-IP (anti-Flag IP, IB RAD51, band quantification)
# Conditions: with RAD51, endogenous [human (endogenous in U2OS and HeLa)]; U2OS cells; 20 μM ETO, 0 h; read off a plot
row,Variant,response (relative level)
1,chain 1 K196R,0.17

# Same assay, conditions: with RAD51, endogenous [human (endogenous in U2OS and HeLa)]; U2OS cells; 20 μM ETO, 2 h; read off a plot
row,Variant,response (relative level)
1,chain 1 K196R,0.52

# Same assay, conditions: with RAD51, endogenous [human (endogenous in U2OS and HeLa)]; U2OS cells; 20 μM ETO, 8 h; read off a plot
row,Variant,response (relative level)
1,chain 1 K196R,0.31
